Results published in patent US20110008302.

T1: H3K36(me2) peptide ATGGV-K(me2)-KPHRY
T1 chain: ATGGVKKPHRY

T2: H3K4(me3) peptide ART-K(me3)-QTARKST
T2 chain: ARTKQTARKST

B1: bacterially expressed mouse Ndy1 fragment containing the JmjC, CXXC and PHD domains (aa 171-707) (protein)
chain: MWPQHLKEKQTEATNALAEMKYPKVKKYCLMSVKGCFTDFHIDFGGTSVWYHVFRGGKIFWLIPPTLHNLALYEEWVLSGKQSDIFLGDRVERCQRIELKQGYTFFIPSGWIHAVYTPVDSLVFGGNILHSFNVPMQLRIYEIEDRTRVQPKFRYPFYYEMCWYVLERYVYCVTQRSYLTQEYQRELMLIDAPRKTSVDGFSSDSWLDMEEESCEQQPQEEEEEEEDKEEEGDGADKTPKPPTDDPTSPTSTPPEDQDSTGKKPKAPAIRFLKRTLSNESEESVKSTSMPTDDPKTPTGSPATEVSTKWTHLTEFELKGLKALVEKLESLPENKKCVPEGIEDPQALLEGVKNVLKEHVDDDPTLAITGVPVVSWPKKTAKNRVVGRPKGKLGPASAVKLAANRTTAGARRRRTRCRKCEACLRTECGECHFCKDMKKFGGPGRMKQSCIMRQCIAPVLPHTAVCLVCGEAGKEDTVEEEEGKFNLMLMECSICNEIIHPGCLKIKESEGVVNDELPNCWECPKCNHAGKTGKQKRG
B2: 171-707 Ndy1 fragment containing the Y221A mutation (protein)
chain: MWPQHLKEKQTEATNALAEMKYPKVKKYCLMSVKGCFTDFHIDFGGTSVWAHVFRGGKIFWLIPPTLHNLALYEEWVLSGKQSDIFLGDRVERCQRIELKQGYTFFIPSGWIHAVYTPVDSLVFGGNILHSFNVPMQLRIYEIEDRTRVQPKFRYPFYYEMCWYVLERYVYCVTQRSYLTQEYQRELMLIDAPRKTSVDGFSSDSWLDMEEESCEQQPQEEEEEEEDKEEEGDGADKTPKPPTDDPTSPTSTPPEDQDSTGKKPKAPAIRFLKRTLSNESEESVKSTSMPTDDPKTPTGSPATEVSTKWTHLTEFELKGLKALVEKLESLPENKKCVPEGIEDPQALLEGVKNVLKEHVDDDPTLAITGVPVVSWPKKTAKNRVVGRPKGKLGPASAVKLAANRTTAGARRRRTRCRKCEACLRTECGECHFCKDMKKFGGPGRMKQSCIMRQCIAPVLPHTAVCLVCGEAGKEDTVEEEEGKFNLMLMECSICNEIIHPGCLKIKESEGVVNDELPNCWECPKCNHAGKTGKQKRG

How the values were obtained:
[1] = biological target: T1, H3K36(me2) peptide ATGGV-K(me2)-KPHRY
[2] = biological target: T2, H3K4(me3) peptide ART-K(me3)-QTARKST

Row | Protein | fluorescence coupled demethylation assay [1] | specific activity (ratio H3K36me2 versus H3K4me3 peptide) [1] | fluorescence coupled demethylation assay [2]
1 | B1 | shown to demethylate both H3K36me2 and H3K4me3 peptides, with high and low efficiencies respectively | about three times higher specific activity towards the H3K36me2 versus the H3K4me3 peptide | shown to demethylate both H3K36me2 and H3K4me3 peptides, with high and low efficiencies respectively
2 | B2 | failed to demethylate either of the peptide substrates | – | failed to demethylate either of the peptide substrates
